Patent US20200385445A1 (COMPUGEN, published 2020)
Changes are numbered by the printed parent chain.

T1: human PVRIG (Poliovirus Receptor Related Immunoglobulin Domain Containing Protein), full length on cells (human, UniProt Q6DKI7 41-326)
T1 construct: whole, on cells; Over-expressed on HEK293 (some pools flag-tagged) or endogenous on Jurkat, CA46, T cells, NK cells, TILs; also called hPVRIG; HEK hPVRIG
T1 sequence (looked up): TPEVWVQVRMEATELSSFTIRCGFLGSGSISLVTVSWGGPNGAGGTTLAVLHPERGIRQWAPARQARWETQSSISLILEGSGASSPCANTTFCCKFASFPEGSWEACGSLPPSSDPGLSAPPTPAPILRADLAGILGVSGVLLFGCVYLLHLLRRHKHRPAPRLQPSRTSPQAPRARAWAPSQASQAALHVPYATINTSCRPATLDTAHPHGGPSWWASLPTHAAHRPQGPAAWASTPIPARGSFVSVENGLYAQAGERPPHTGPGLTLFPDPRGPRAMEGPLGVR

B1: CPA.7.019 human IgG1 (antibody, V domains shown)
VH: QVQLQESGPGLVKSSETLSLTCSVSGGSISNSNYYWGWIRQPPGKGLEWIGGIYYSGSTYYNPSLESRVTISEDTSKNQISLKLSSVTAADTAVYYCARGAWELSLGDWFDPWGPGTLVTVSS
VL: QSVLTQPPSVSGAPGQRVTISCTGSSSNIGAGYDIQWYQQLPGTAPKLLIYGNNNRPSGVPDRFSGSRSGTSASLAITGLQAEDEADYYCQSYDSSLSVYVVFGGGTQLTVLG
B2: CPA.7.012 human IgG1 (antibody, V domains shown)
VH: EVQLVETGGGLIQPGRSLRLSCAASGFTFSSYAMHWVRQAPGKGLEWVAVISYDGSNKYYADSVKGRFTISRDNSKNTLYLQMNSLRAEDTAVYYCARDVMVYCSSTSCYFYGMDVWGQGTTVTVSS
VL: DIQMTQSPSSLSASVGDRVTVTCQASQDIRDYLNWYQKKPGKAPKLLIYDASNLEAGVPSRFSGSGSGTDFTFTISGLQPEDVATYYCQQFENLPITFGQGTRLEIKR
B3: CPA.7.017 human IgG1 (antibody, V domains shown)
VH: QVQLVQSGAEVKKPGSSVKVSCKASGGTFNNYGISWVRQAPGKGLEWMGQIIPLFGTTKYAQKFQGRVTIAADEPTSTAYMELGSLRSEDTAIYYCARDRMAADGMAVFDYWGQGTLVTVSS
VL: QSVLTQPPSVSGTPGQKVIISCSGSSSNIGRHFVFWYQQLPGTAPKLLIYKNDERPSGVPDRFSGSKSGTSASLAVSGLRSEDEADYYCSSWDAALNGVVFGGGTKLTVLG
B4: CPA.7.015 human IgG1 (antibody, V domains shown)
VH: QITLKESGGGVVQPGGSLRLSCAASGFTFSSYGMHWVRQAPGKGLEWVAFIRYDGSNKYYADSVKGRFTISRDNSKNTLYLQMNSLRAEDTAVYYCARDLFDFWWDGMDVWGQGTTVTVSS
VL: EIVLTQSPGTLSLSPGEKATLSCRVSQSVSSMYLAWYQQKPGQAPRLLIYGASYRATGIPDRFSGSGSGTDFNLTISRLEPEDFAVYYCQQYVSSPMYTFGLGTKLEIKR
B5: CPA.7.004 human IgG1 (antibody, V domains shown)
VH: EVQLVQSGAEVKKPGASVKVSCKVSGYTLTELSMHWVRQAPGKGLEWMGGFDPEDGETIYAQKFQGRVTMTEDTSTDTAYMELSSLRSEDTAVYYCATVSRVRGVINYYYYMDVWGKGTTVTVSS
VL: DVVMTQSPLSLPVTPGEPASISCRSSQSLLYRNGNNYLDWYLQKPGQSPQLLIYLGSNRASGVPDRFSGSGSGTDFTLKISRVEAEDVGVYYCMQALQTPPTFGGGTKLEIKR
B6: CPA.7.014 human IgG1 (antibody, V domains shown)
VH: EVQLVQSGAEVKKPGASVKVSCKVSGYTLTELSMHWVRQAPGKGLEWMGGFDPEDGETIYAQKFQGRVTMTEDTSTDTAYMELSSLRSEDTAVYYCATGVTTYYYYGMDVWGQGTTVTVSS
VL: B5 VL with R32S, Y37F, Q50R, Y54S, V90I, G105Q, L109V
B7: CPA.7.023 human IgG1 (antibody, V domains shown)
VH: EVQLVQSGAEVKKPGASVKVSCKVSGYTLTELSMHWVRQAPGKGLEWMGGFDPEDGETIYAQKFQGRVTMTEDTSTDTAYMELSSLRSEDTAVYYCATDSRDGPAARGGYYYYMDVWGQGTTVTVSS
VL: B5 VL with P15L, E17Q, R32I, N35Y, G105Q, L109V
B8: CPA.7.011 human IgG1 (antibody, V domains shown)
VH: EVQLVQSGAEVKKPGASVKVSCKVSGYTLTELSMHWVRQAPGKGLEWMGGFDPEDGETIYAQKFQGRVTMTEDTSTDTAYMELSSLRSEDTAVYYCATGPAAAGVGYYYYMDVWGKGTTVTVSS
VL: B5 VL with N35Y, G105Q, L109V
B9: CPA.7.022 human IgG1 (antibody, V domains shown)
VH: EVQLVQSGAEVKKPGASVKVSCKVSGYTLTELSMHWVRQAPGKGLEWMGGFDPEDGETIYAQKFQGRVTMTEDTSTDTAYMELSSLRSEDTAVYYCATGVPAAIGVYYYYYYMDVWGKGTTVTVSS
VL: B5 VL with R32S, N35Y, Y54S, T99S, P101V, L109V
B10: CPA.7.024 human IgG1 (antibody, V domains shown)
VH: EVQLVQSGAEVKKPGSSVKVSCKASGGTFSSYAISWVRQAPGQGLEWMGGIIPIFGTANYAQKFQGRVTITADESTSTAYMELSSLRSEDTAVYYCARDAYYYDSSGYYNPDAFDIWGQGTMVTVSS
VL: B5 VL with Y31H, R32S, N35Y, N58S, G71V, A96G, P101R, G105R
B11: CPA.7.009 human IgG1 (antibody, V domains shown)
VH: EVQLVQSGAEVKKPGASVKVSCKVSGYTLTELSMHWVRQAPGKGLEWMGGFDPEDGETIYAQKFQGRVTMTEDTSTDTAYMELSSLRSEDTAVYYCATAKPGIAVAGQNYYYYYMDVWGKGTTVTVSS
VL: B5 VL
B12: CPA.7.040 human IgG1 (antibody, V domains shown)
VH: B9 VH
VL: B5 VL with N35Y, L55W, N58Y, L97V, T99N, G105Q, L109V, E110D
B13: CPA.7.047 human IgG1 (antibody, V domains shown)
VH: B8 VH with G99A, P100F, A101P, A102E, G104T, V105I, G106S
VL: B5 VL with N35Y, L55W, N58Y, L97V, T99N, G105Q, L109V
B14: CPA.7.016 human IgG1 (antibody, V domains shown)
VH: EVQLVQSGAEVKKPGSSVKVSCKTSGGTFSSSAISWVRQAPGQGFEWMGGIIPIYGITDYAQKFQGRVTITTDESTSTAYMELSSLTSEDTAVYYCARDDTARRVRGVPYYYYYAMDVWGQGTTVTVSS
VL: EIVLTQSPGTLSLSPGERATLSCRASQSVSSYLAWYQQKPGQAPRLLIYDASNRATGIPARFSGSGSGTDFTLTISSLQSEDFAVYYCQQYDDWPQTFGQGTRLEIKR
B15: CPA.7.033 human IgG1 (antibody, V domains shown)
VH: B14 VH with E1Q, T24A
VL: ETTLTQSPAFMSATPGDEVNISCKASQDIDDDVSWYQQKPGGAPIFLIQEASTLVPGIPPRFSGSGFGTDFTLTIKNMESEDAAYYFCLQHDNLPLTFGGGTKVDIKR
B16: CPA.7.018 human IgG1 (antibody, V domains shown)
VH: B9 VH with G99E, A102M, A103V, I104R, V106A, Y107R, Y108R
VL: DVVMTQSPLFLAVTPGEPASISCRSSQTLLYINENNYLDWYVQKPGQSPQLLIYLGSTRASGVPDRFSGGGSGTDFTLTISRVEAEDVGLYYCMQGLQTPPTFGQGTRLEIKR
B17: CPA.7.010 human IgG1 (antibody, V domains shown)
VH: EVQLVESGGGLVQPGRSLRLSCAASGFTFSSYAMHWVRQAPGKGLEWVAVISYDGSNKYYADSVKGRFTISRDNSKNTLYLQMNSLRAEDTAVYYCASSPIGYSYGYWGGMDVWGQGTTVTVSS
VL: QAVLTQPASLSASPGASASLTCTLRSGIDVRTNKIFWYQVKPGSPPQHLLTFQSDSDKQQGSGVPSRFSGSKDASANAGILIISGLQSEDEADYYCLIWHTSGWVFGGGTQLTVLG

target: T1, human PVRIG (Poliovirus Receptor …); assay: FACS dose titration on PVRIG over-expressing HEK293 cells
Protocol: FACS screening of the reformatted antibodies was done similarly to the PPE based screen described herein, except that a dose-dependent titration of the purified antibodies was performed. The human PVRIG over-expressing HEK293 cells, or the un-transfected HEK293 cells, were incubated with varying concentrations (0-10 μg/ml) of the anti PVRIG antibodies or isotype controls in FACS buffer at 4° C. for 60 mins. […] Cells were washed twice and re-suspended in a final volume of 80 μl of FACS buffer and Propidium Iodide (Biolegend cat #421301) diluted 1:1000. Samples were analyzed using an Intellicyt HTFC screening system (Intellicyt). Data was analyzed using FlowJo (DeNovo), exported to Excel (Microsoft) and plotted in GraphPad Prism (GraphPad Software, Inc.).
All unique ELISA and FACS binders were reformatted for expression as human IgG1 molecules in Expi293 cells. […] These reformatted antibodies were tested for retained binding to PVRIG over-expressing HEK293 cells alongside an irrelevant human IgG1 isotype control. All antibodies were also tested against un-transfected HEK293 cells.

Binder	Kd [nM]
B1	0.45
B2	0.3
B3	1.82
B4	1.34
B5	21.7
B6	2.04
B7	4.08
B8	66
B9	4.17
B10	9.08
B11	33
B12	0.79
B13	5.36
B14	22
B15	12.8
B16	9.29
B17	21.9
